Test results published in US20210032330A1 (PHANES THERAPEUTICS, published 2021).

B1: Chimeric (antibody, V domains shown)
VH: QVQLQQSGAELVKPGASVKLSCKASGYTFTSSDINWVRQRPEQGLEWIGWIFPGDGSTKYNEKFKGKATLTTDKSSSTAYMQLSRLTSEDSAVYFCARGLDYWGQGTTLTVSS
VL: DIKMTQSPSSMYASLGERVTITCKASQDINSYLGWFQQKPGKSPKTLIYRADRLVDGVPSRFSGSGSGQDYSLTISSLEYEDMGIYYCLQYDEFPLTFGAGTKLELK
notes: detected with anti-human IgG-HRP; also called chimeric version of anti-TIM-3 mAb 16-K5-A
B2: H5L5 (antibody, V domains shown)
VH: QVQLQESGPGLVKPSETLSLTCTASGYTFTSSDINWVRQPPGKGLEWIGWIFPGDGSTKYNPSLKSRATLSTDKSKNQASLNLDSVSAADTAIYFCARGLDYWGKGSTVTVSS
VL: DIQMTQSPSSLSASVGDRVTITCKASQDINSYLGWFQQKPGKAPKTLIYRADRLVDGVPSRFSGSGSGQDYTFTISSLQPEDIATYYCLQYDEFPLTFGPGTKVDIK
notes: also called humanized version of anti-TIM-3 mAb 16-K5-A, VH H5 with VL L5
B3: H7L5 (antibody, V domains shown)
VH: QVQLQESGPGLVKPSETLSLTCKASGYTFTSSDINWVRQPPGKGLEWIGWIFPGDGSTKYNPSLKSRATLSTDKSKNQASLNLSSVTAADTAVYFCARGLDYWGKGTTVTVSS
VL: DIQMTQSPSSLSASVGDRVTITCKASQDINSYLGWFQQKPGKAPKTLIYRADRLVDGVPSRFSGSGSGQDYTFTISSLQPEDIATYYCLQYDEFPLTFGPGTKVDIK
notes: also called humanized version of anti-TIM-3 mAb 16-K5-A, VH H7 with VL L5
B4: 12-M11-A (antibody, V domains shown)
VH: QVQLQQSGAELAKPGASVKMSCKASGYFTSYWMHWVKQRPGQGLEWIGYINPITGYTEYNQKFKDKATLTADKSSSTAYMQLSRLTSEDSAVYYCARGVENFDYLYAMDYWGQGASVTVSS
VL: QIVLTQSPAIMSASPGEKVTMTCSASSSISYMHWYQQKPGTSPKRWIYDTSKLASGVPTRFNGSGSGTSYSLTISSMEAEDAATYYCHQRSSYRTFGGGTKLEIK
notes: also called anti-TIM-3 monoclonal antibody 12-M11-A
B5: anti-TIM-3 monoclonal antibody 5-K4-A (antibody, V domains shown)
VH: EVQLQQSGPELVKTGASVKISCKASGYSFTAYYIHWVKQSHGKSLEWIGHISCFNGATSYNQKFKGKATFTVDTSSSTAYMQFNSLTSEDSAVYYCARRGDFDRPEFAYWGQGTLVTVSA
VL: DIVLTQSPASLAVSLGQRATISCRASESVEYYGTSLMQWYQQKPGQPPKLLIYAASNVESGVPARFSGSGSGTDFSLNIHPVEEDDIAMYFCQQSRKVPWTFGGGTKLEIK
notes: Mouse hybridoma mAb; captured on anti-mouse Fc biosensors
B6: anti-TIM-3 monoclonal antibody 16-L3-A (antibody, V domains shown)
VH: QVQLQQSGPELVKPGASVKMSCKASGYTFTSYYIHWVKQRPGQGLEWIGWIYPGDGSTKYNEKFKGKTTLTADKSSSTAYMLLSSLTSEDSAIYFCATDRYDVAYWGQGTLVTVSA
VL: EIVLTQSPALMAASPGEKVTITCSVSSSISSSNLHWYQQKSETSPKPWIYGTSNLASGVPVRFSGSGSGTSYSLTISSMEAEDAATYYCQQWSSYPLTFGAGTKLELK
notes: as for B5
B7: anti-TIM-3 monoclonal antibody 10-M21-A (antibody, V domains shown)
VH: DVQLQESGPTLVKPSQTLSLTCSVTGDSITSGYWNWIRKFPGNKLEYMGYISYSGSTYYNPSLKSRISIIRDTSKNQYYLQLNSVTTEDTATYYCVSGNHFDYWGQGTTLTVSS
VL: DIQMTQSPSSLSASLGGKVTITCKASQDINRYIAWYQHKPGKGPRLLIHYTSTLQPGIPSRFSGSGSGRDYSFSISNLEPEDIATYYCLQYDNLLFTFGSGTKLEIK
notes: as for B5
B8: anti-TIM-3 monoclonal antibody 18-N1-A (antibody, V domains shown)
VH: QVQLQQPGAELVRPGVSVKLSCKASGYTFTSYWMHWIKQRPEQGLERIGEINPSNGGTNYNEKFKNKATLTVDKSSSTAYMQLSSLTSEDSAVYYCARSYYTYDAIDYWGQGTSVTVSS
VL: DIVMSQSPSSLAVSAGEKVTMSCKSSQSLLNSRTRKNYLAWYQQKPGQSPKLLIYWASTRESGVPDRFTGSGSGTDFTLTISSVQAEDLAVYYCKQSYNLYTFGGGTKLEIK
notes: as for B5
B9: anti-TIM-3 monoclonal antibody 16-K5-A (antibody, V domains shown)
VH: QVQLQQSGAELVKPGASVKLSCKASGYTFTSSDINWVRQRPEQGLEWIGWIFPGDGSTKYNEKFKGKATLTTDKSSSTAYMQLSRLTSEDSAVYFCARGLDYWGQGTTLTVSS
VL: DIKMTQSPSSMYASLGERVTITCKASQDINSYLGWFQQKPGKSPKTLIYRADRLVDGVPSRFSGSGSGQDYSLTISSLEYEDMGIYYCLQYDEFPLTFGAGTKLELK
notes: Mouse hybridoma mAb (parent of the humanized H1L1, H2L1, H5L5, H7L5); captured on anti-mouse Fc biosensors; also called mouse anti-TIM-3 mAb 16-K5-A
B10: anti-TIM-3 monoclonal antibody 6-I13-A (antibody, V domains shown)
VH: EVQLQQSGPELEKPGASVKISCKASGYSFTGYNMNWVKQSNGKSLEWIGNIDPYYGVTSYNQKFKGKATLTVDKSSSTAYMQLKSLTSEDSAVYYCASYSLTYDGYYPFAYWGQGTLVTVSA
VL: DIVLTQSPASLAVSLGQRATISCRASKSVSTSGYSYMHWYQQKPGQPPKLLIYLASNLESGVPARFSGSGSGTDFTLNIHPVEEEDAATYYCQHSRELPYTFGGGTKLEIK
notes: as for B5

The binders below were run against T1, human T-cell immunoglobulin and mucin-domain containing molecule 3 (TIM-3) (human, UniProt Q8TDQ0 22-200, limits assumed) (assay: ELISA, recombinant human TIM-3(ECD)-6His coated on the plate, anti-human IgG-HRP detection, absorbance at 450 nm).
T1 construct: also called Human TIM-3
Procedure: (§1) Recombinant human TIM-3(ECD)-6His in carbonate coating buffer was coated on an ELISA plate at 4° C. overnight.

Row | EC50 (read off the curve) [nM] | Binder
1 | ~0.2 | B1
2 | ~0.2 | B2
3 | ~0.1 | B3

These binders were tested against T1, human T-cell immunoglobulin and … (assay: competition ELISA: pre-equilibrated mixture of mAb and human TIM3(ECD)-huFc on plate-coated phosphatidylserine (PtdSer, a lipid), anti-huFc-HRP detection, % inhibition).
Procedure: (§2) ELISA plates were coated with PtdSer or PtdChol, washed and incubated with a pre-equilibrated mixture of purified antibodies at various concentrations and TIM3(ECD)-huFc. The plates were washed and then the signal was detected by incubation with HRP-coupled anti-huFc secondary antibody and then a HRP substrate. TIM-3 binding to PtdSer was used as 100% signal and TIM-3 binding to PtdChol as zero (background) to calculate percent of inhibition by a given mAb.
(§3) To determine the effect of anti-TIM-3 antibodies on the interaction of TIM-3 with phosphatidylserine (PtdSer), 384-well ELISA plates were coated with PtdSer or phosphatidylcholine (PtdChol) at room temperature. The wells were washed using PBS supplemented with 0.1% Tween-20 and then blocked using PBS supplemented with 2% bovine serum albumin (BSA). […] The plates were washed and then incubated with HRP-coupled anti-huFc secondary antibody. Plates were washed, incubated with an HRP substrate, and read using a POLARstar Omega Microplate (BMG LABTECH). The assay was performed in triplicate.

Row | IC50 (read off the curve) [nM] | Binder
4 | ~7 | B4
5 | ~6 | B5

What follows are binders tested against T1, human T-cell immunoglobulin and … (assay: BLI (OCTET Red96), mAb on anti-mouse Fc biosensor, antigen in solution, 1:1 model).
Procedure: Binding experiments were performed on OCTET Red96 at 25° C. Antibodies were loaded onto Anti-Mouse Fc (AMC) biosensors. Loaded sensors were dipped into serial dilutions of antigen. Kinetic constants were calculated using a monovalent (1:1) model. The assay buffer was PBS supplemented with 0.1% BSA, 500 mM NaCl, 0.02% Tween-20, pH 7.2.

Row | Kd [nM] | Binder
6 | 14 | B6
7 | 16 | B7
8 | 1.1 | B8
9 | 7.9 | B9
10 | 9.9 | B10
11 | 1.8 | B5

Target: T1, human T-cell immunoglobulin and …
Assay: competition ELISA: pre-equilibrated mixture of mAb and human TIM3(ECD)-huFc on plate-coated phosphatidylserine (PtdSer, a lipid), anti-huFc-HRP detection, % inhibition
Remark: another data set of the same source
Procedure: as §2, §3

Row | IC50 (read off the curve) [nM] | Binder
12 | ~4 | B10

Target: T1, human T-cell immunoglobulin and …
Assay: ELISA, recombinant human TIM-3(ECD)-6His coated on the plate, anti-human IgG-HRP detection, absorbance at 450 nm
Remark: another data set of the same source
Procedure: as §1

Row | EC50 (read off the curve) [nM] | Binder
13 | ~0.09 | B1
